The results in this text go back to the supplement of paper PMC12042874.

This data set in a line: amyloid nucleation score (Sup35N fusion, yeast selection) (log enrichment); library NNK2; higher = more nucleation; inactive = no reads after selection. The essentials:
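On medium lacking adenine and uracil, psi-negative yeast expressing peptides of 20 random codons fused to Sup35N were grown 7 days at 30°C after a 24-hour induction with 100 μM copper sulfate. Illumina sequencing of input and output plasmid inserts gave the reads, and sequences under 100 input reads were excluded. The nucleation score is the DiMSum log enrichment of output over input reads, centred on the mode score of non-aggregating sequences.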

± gives the uncertainty stated by the source.

Substance NPTHLLPHTEIGVLDTCAF came in with an amyloid nucleation score of 0.265 ± 1.1. As for QQYSADLLRGYPCMSYVPVG, the amyloid nucleation score is -0.091 ± 0.26. The figure for SVDYLCFVFNGGRSSSECQY is 7.755 ± 0.032. The figure for ITSHVDAAVEFPNVSFSHGV is 1.37 ± 0.47. The figure for YHLSELVMRREWSDWYNVCG is 0.126 ± 0.43; for VSTSYVTTIVF it is -0.237 ± 0.41. Take RVCPVSG: the amyloid nucleation score is -0.068 ± 0.79. The value for LASSKEACVHTVMAIVSVGA was 2.08 ± 0.12.

As for KFHGSVNGMFPAREITRDLR, the amyloid nucleation score was 0.316 ± 0.23. The value for KAYLH was -0.427 ± 0.78; that for SRCLSSITVLTCNHMSVKAC was 0.224 ± 0.8. The entry for YACFRPFSDTRRRCGFSTL is “inactive”. The figure for EESFYTTPLSVFCVNLRYIV is -0.383 ± 1.1. SRHRVLFFYKFVCLIWV displayed an amyloid nucleation score of -0.8 ± 0.74. The value for LNSGCAVVLCADSRHSNEPD was -0.062 ± 0.65.

The substance EFHVRGDSDGYC registered an amyloid nucleation score of -1.41 ± 1.1. The value for TCTVASLYLGAFDWNYVEAV was 3.08 ± 0.12; that for YCGFQYLRWGVTVVNS was 0.386 ± 0.19; that for NVLLNQNIMVLPGPLYFSIT was 6.129 ± 0.054.

Regarding SYVAFLSTTRASSMI, the amyloid nucleation score result was “inactive”. Substance PWCESLCVRRGAESVSTWVK gave an amyloid nucleation score of 1.2 ± 0.22.

The substance YHNWSA came in with an amyloid nucleation score of 0.025 ± 0.23. The value for GRDNYSWCSRVEPCKRNGAL was 0.103 ± 0.43; that for YLLMTKCVTVAERMGIMISC was -0.95 ± 1. For the substance FRSHCWL, the amyloid nucleation score amounted to 0.285 ± 0.41. The figure for YTVLWRCTFTKARVFGCVSL is 0.414 ± 0.51. In turn, NGRRFLSYSVMLRDLRYRSC displayed an amyloid nucleation score of 0.138 ± 0.76. The figure for MLRFFCADWCSLGVCFTLGV is -0.137 ± 1.1.

CGRRMYKSIVQICMFRGNLN registered an amyloid nucleation score of 0.053 ± 0.79. The figure for MKFKPDLVLFRYVHVKVYLE is -1.01 ± 1.1. The value for FILQQAYGDWFTVDSNSCIM was -1.64 ± 1.1; that for YKLRSQ was -0.184 ± 0.27; that for FMVACHCCHTSCEYNFGNTV was 3.96 ± 0.13. The figure for YIYRNITRLQKSCSIIISGR is -1.88 ± 0.64; for GPNDWRNCFRD it is 0.401 ± 0.56; for SGRIYSGDETMFRWECRYWC it is 3.25 ± 0.051. As for LRLFFNYWSNWGATEKNYIL, the amyloid nucleation score is -1.52 ± 1.1. With SIMGYGFDVRCELCDVTGGW, the amyloid nucleation score is -0.079 ± 0.53. The value for ANVGYFVGW was 0.873 ± 0.31; that for MGGLNLCLWSSGLMLVGTGR was 5.237 ± 0.043; that for RCFGFRVVRFVV was 0.014 ± 0.2. The substance LTILFH yielded an amyloid nucleation score of 4.84 ± 0.078. The figure for LGIVVVHWTPIIAGW is -1.11 ± 0.56; for KIFFKNDGAGSVWPSNKLYF it is -1.29 ± 1. The entry for YGTKQVGKNRFFEHSYYYWP is “inactive”; for SVSVYTASS it is “inactive”; for QFDMEQFVQCPGTMSSRAVG it is 5.04 ± 0.059. The figure for LLMSCPLSLCSEGVTSLVEG is 1.29 ± 0.3; for LLNDFRQLNTRYDSRWGQWQ it is 3.08 ± 0.058.

As for DGFHLNALHLESRQLGVGFS, the amyloid nucleation score was found to be 3.87 ± 0.069. Take KWRDRNDINNFRQGLLCSVN: the amyloid nucleation score stood at 3.03 ± 0.14. On to LMSGVLGRWLKKSSKFQESL, for which the amyloid nucleation score is -0.653 ± 1.1. In the case of IVDKVGHRVYEFVIYLTEDG, the amyloid nucleation score result was “inactive”. The value for SFIGLETCQFSFHLIF was 4.15 ± 0.092. As for FLEFLDTMWW, the amyloid nucleation score was -0.233 ± 0.56. The value for LISVDFRYYGYVVLGWISTL was 0.807 ± 0.1. The figure for VQKRRGFILTSFR is -0.173 ± 0.39; for TSYKVVLVTYRT it is 5.81 ± 0.074. Take NSRYPDRGILKLVV: the amyloid nucleation score turned out to be 0.409 ± 0.65. The value for SDPSNLSMMCTQQRLAGSD was -0.189 ± 0.49; that for SFVTTKSSFL was -0.205 ± 0.74. For AYMSITSSLYNCTRRPTGTC, the amyloid nucleation score was -1.35 ± 0.38.

Consider SGVIEIMFEKSHRLHCCLFC, for which the amyloid nucleation score was determined as 1.08 ± 0.41.

As for FSLLTTFSLTNGGPAFLMIR, the amyloid nucleation score entry was “inactive”. Regarding IESRVWVGWSDD, the amyloid nucleation score was -0.044 ± 0.49. As to NVPCGYEWSFNLCIMGEASS, the amyloid nucleation score is 6.842 ± 0.049.

Substance PCVPGDYTVAKVAFSTY displayed an amyloid nucleation score of -0.011 ± 1.1. In turn, LFLCYFIRT returned an amyloid nucleation score of 2.17 ± 0.1. The value for VLPYSRVSTS was 0.007 ± 0.28; that for GQPRLRSY was 3.89 ± 0.1; that for YNIIYWFLYKVQAWSVCSWG was 5.31 ± 0.077. Take TNCGRVINRSSVVHAFNYGV: the amyloid nucleation score entry was “inactive”.

The substance KLPLFTSMCCTGHFPPITPP registered an amyloid nucleation score of 0.409 ± 0.8. The value for SDCLGKSVVVYNLLGFGR was 4.791 ± 0.045; that for ELVYHLSNLKG was -0.381 ± 1.1. On to SIAGVIMVDSSSLSM, for which the amyloid nucleation score is -1.01 ± 0.78. Consider IWTDVRLGGRDIVLDSRVYF, for which the amyloid nucleation score came out at 2.14 ± 0.098. The value for SDDFTYSIYFMSWFFYGSYN was “inactive”; that for VTKVLQFCSPSYLLYSRLNV was 0.709 ± 0.47; that for FFMPKGTLRSIGSLFR was -1.65 ± 1.1. Consider VVILTFKAVYTAKFYACCAV, for which the amyloid nucleation score was -0.104 ± 0.45. As to CNKTLLFIFPVLGQQDGDFG, the amyloid nucleation score came to 4.417 ± 0.044. Substance KTLKNEFVDMNQMIYNY yielded an amyloid nucleation score of -0.489 ± 0.79. The figure for SELPDIRWHTGWMFLSCAWN is -0.397 ± 0.63; for HYAVTYLLGYSVGRVLYLWK it is -0.509 ± 0.79.

Substance LVDNLR came in with an amyloid nucleation score of -0.441 ± 1.1.

AYRRYDWYFMLVRLLY came in with an amyloid nucleation score of 0.795 ± 0.5.

For the substance CISTLIGTRPTAYLLLLRDI, the amyloid nucleation score entry is “inactive”. As to LVGDRNDVLPVFVRSRRRVP, the amyloid nucleation score was 0.53 ± 0.56.

RECIYFRFYSRWATLSFLNR had an amyloid nucleation score of -0.368 ± 1. As for VFRYAGRCRNGIVGLYGATM, the amyloid nucleation score was found to be 4.677 ± 0.046. The value for LGNWCGYWYFHHISSYGLMR was -0.419 ± 0.5.

For the substance MTCSTWMQLVRYTSVICILT, the amyloid nucleation score result was “inactive”. Turning to FNGLVVFSEHMIRITACDEG, the amyloid nucleation score was -0.479 ± 1. In the case of LSAKSTCTAYNRAGSARTEY, the amyloid nucleation score is -0.072 ± 1.1.

In the case of AMDMI, the amyloid nucleation score amounted to 0.833 ± 0.8. VLREDSIELWPDGTVGGRTG had an amyloid nucleation score of 1.35 ± 0.37.

Consider VSKKFIIVVRNREFSP, for which the amyloid nucleation score came to 4.43 ± 0.086. The value for IILRSCMYCGSLAIIKGWMS was 2.91 ± 0.12; that for NWGMLLGCGGW was 0.201 ± 0.8. The figure for SQGIVSDAANYMHILSAGYD is 0.044 ± 0.55; for LMLNWCTLGLVHC it is 0.004 ± 0.61. The figure for SDHMYMIFMTMFVVVSHWVI is -0.795 ± 0.76. The substance GIRWQVATDSPRLSGYPLCT gave an amyloid nucleation score of 3.46 ± 0.083. As for NILLMYFSLK, the amyloid nucleation score was determined as 5.74 ± 0.049.

As to SPYLMSTDKIRLSP, the amyloid nucleation score came to 1.16 ± 0.44. The value for NRHMLNTDRRPQVRLHFGTL was 0.232 ± 0.37. Regarding ARCMGFLSGGIHYRYLTAQM, the amyloid nucleation score entry was “inactive”. Substance QFCCVESLGLLALAWLFTGF displayed an amyloid nucleation score of 3.62 ± 0.11.

RYTCRLFTDTYDSSVVLGAM had an amyloid nucleation score of 1.17 ± 0.37.

GLDMDGSVLPFVFYRSMYGE displayed an amyloid nucleation score of 0.136 ± 0.55. DRGRSNWFRMMWIDGEHYSE came in with an amyloid nucleation score of -0.492 ± 0.61. The value for RTPPISMGKHNFVYVSSVCG was -1.1 ± 0.36. As for FLLSISNRVDMFIFVLHHFT, the amyloid nucleation score entry was “inactive”.

Take ILCLFTLSSSKCYGG: the amyloid nucleation score worked out at 5.689 ± 0.037. The figure for CSQIRFGRADRLNETSIKLV is 0.333 ± 0.54; for MLRHSANMIKMLKHTTTND it is 0.004 ± 0.45.

Regarding INWCSDMHNCVCLTIGQWLV, the amyloid nucleation score is 3.36 ± 0.16.

Take SDLYNSSFEVLYSSYCPDVW: the amyloid nucleation score entry is “inactive”. The figure for CTRRRM is 1.63 ± 0.15; for LVDFNVLYNAGIIRLHTERY it is 8.048 ± 0.07; for AGSNDEKNRWVTSL it is -0.22 ± 1. CASAVLCCPKTSR registered an amyloid nucleation score of -0.02 ± 0.34.

In the case of PTGYILESTYFTGQGKCAGL, the amyloid nucleation score is -0.255 ± 1.1.

As for FMQPYTCRSDFDRK, the amyloid nucleation score was 0.052 ± 0.48. The value for LCARALLH was 0.905 ± 0.32; that for AIMYFVTCMKILMFVGNYVQ was -0.118 ± 0.27.

The substance IVKYLVCEQTKILCMMCTCD yielded an amyloid nucleation score of 8.891 ± 0.068. With WSDACSGCNFK, the amyloid nucleation score result is “inactive”. The value for NCLVISFKLWHNLMTVGYGD was 3.66 ± 0.079; that for HLRYGGFAV was 0.085 ± 0.2.

Turning to SFRYLCIRNGTSYGMYTSPV, the amyloid nucleation score is 0.478 ± 0.8.

Take KIDSICRYRGPINQLNINPF: the amyloid nucleation score was found to be 0.417 ± 0.4. SEGRATARQLLVKDTLFV yielded an amyloid nucleation score of 4.06 ± 0.088.

Substance FFFFTNRVTKAVSYGYLMDD showed an amyloid nucleation score of -0.491 ± 0.63. The figure for GGFRWSIQEHWYCTNAYSTD is 0.734 ± 0.81. The value for RKKMGFF was “inactive”. NFNGGCKFKGDYYRKA gave an amyloid nucleation score of 1.14 ± 0.26.
